In test [1] the target is human IgE (human). As to the kind of experiment: SPR Biacore T200, 37 C; pH 7.4, […] Ca. A general note: Surface plasmon resonance follows binding to a sensor surface in real time, without labels.
The target of test [2] is human IgE (human). In words: SPR Biacore T200, 37 C; pH 5.8, […] Ca.
Test [3] concerns the target human IgE (human). In words: SPR Biacore T200, 37 C; ratio of KD, pH dependency.
The target of test [4] is human IgE (human). In words: SPR Biacore T200, 37 C; pH 5.8, 3 microM Ca.
Test [5] deals with human IgE (human). As to the kind of experiment: SPR Biacore T200, 37 C; ratio of KD, pH/Ca dependency.

Sequence of human IgE (human) (heavy, as listed by the source, chain 1 of 2, other chains not shown): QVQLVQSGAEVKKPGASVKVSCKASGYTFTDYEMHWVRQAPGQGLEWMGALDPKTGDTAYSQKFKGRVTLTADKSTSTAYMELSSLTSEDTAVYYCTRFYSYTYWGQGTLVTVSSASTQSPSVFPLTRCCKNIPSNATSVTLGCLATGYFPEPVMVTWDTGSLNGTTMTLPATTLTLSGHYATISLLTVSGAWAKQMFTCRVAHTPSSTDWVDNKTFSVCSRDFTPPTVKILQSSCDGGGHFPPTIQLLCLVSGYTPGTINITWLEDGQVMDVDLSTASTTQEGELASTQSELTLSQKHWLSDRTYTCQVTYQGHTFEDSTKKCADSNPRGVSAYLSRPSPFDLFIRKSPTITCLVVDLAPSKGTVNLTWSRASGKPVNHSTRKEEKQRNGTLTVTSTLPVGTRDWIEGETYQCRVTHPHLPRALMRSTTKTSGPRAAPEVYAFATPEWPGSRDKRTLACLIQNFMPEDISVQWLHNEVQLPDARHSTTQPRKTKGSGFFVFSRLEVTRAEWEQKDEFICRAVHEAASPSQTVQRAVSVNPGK

As usually defined, the Kd is a measure of binding affinity in units of concentration. By koff is commonly meant the rate constant with which the complex falls apart. Read a low koff as a long-lived complex. For orientation: kon means a measure of how fast the partners come together. High values mean fast association, low ones slow association. In the test with human IgE (human) [1], “Xolair (omalizumab; Novartis) (antibody)” gave a Kd of 4.4 nM, a koff of 0.011 s⁻¹ and a kon of 2.5e+06 M⁻¹ s⁻¹. Further, in the test with human IgE (human) [2], the Kd was 9.9 nM, the koff was determined as 0.024 s⁻¹ and the kon came to 2.4e+06 M⁻¹ s⁻¹. For the same substance, in the test with human IgE (human) [3], the KD (pH 5.8, 1.2 mM Ca)/KD (pH 7.4, 1.2 mM Ca) is 2.3. Further, in the test with human IgE (human) [4], the Kd came to 13 nM, the koff was 0.017 s⁻¹ and the kon worked out at 1.4e+06 M⁻¹ s⁻¹. In addition, the KD (pH 5.8, 3 microM Ca)/KD (pH 7.4, 1.2 mM Ca) with human IgE (human) [5] came out at 2.9.

For the origin of these results see patent publication US20140363428A1.
